Laboratory results reported in US8209131B2, “Therapeutic heparins and their binding to interleukins 4 and 5 and PECAM-1” (Curtin University of Technology, priority 2004, dated 2012).

What was measured:
[1] = test system: TF1.8 cells; assay: TF1.8 bioassay of IL-4 mutants (support of proliferation); type: cell-based, human; details: IL-4 wt and mutants, TF1.8 cells
Procedure: TF-1.8 cells have been transfected with the firefly luciferase gene contained in the expression vector, pPGK-puromycin-luciferase (Coombe et al., 1998, Supra). The positive transfectants are cloned to produce a line with good luciferase expression. The proliferation assays are carried out in 96-well microplates suitable for such assays Falcon). The wells are flat bottomed, with white sides and a clear bottom. Cells are washed to remove any cytokine in the growth medium and then resuspended in RPMI/5% w/v FCS. The cells are counted with a Coulter Multisizer (Coulter Electronics, England) and routinely 2.5×10^4 cells are added to microplate wells that contain either no IL-4 (negative control) or various dilutions of IL-4. When the effect of HLGAGs, chondroitin sulfate C, or the heparin fractions of a particular length, or heparin fragments of a particular length and structure is to be measured, the wells also contain various concentrations of these molecules.
The cells proliferate for 48 hours at 37° C. in a humidified atmosphere, after which the luciferase activity is measured by the addition of 50 μl of luciferase substrate buffer (50 mm Tris-HCl, pH 7.8, 15 mM MgSO4, 33.3 mM DTT, 0.1 mM EDTA, 0.5 mM Na-luciferin, 0.5 mM ATP, 0.25 mM lithium Co A and 0.5% v/v Triton X-100). Immediately after the addition of the luciferase buffer the plate is assayed for luciferase activity. Light emissions are detected on a Victor 1420 Multilabel counter (Wallac, Turku, Finland).
IL-4 mutants were compared with WT for their ability to support the proliferation of TF1.8 cells. Titration curves were performed for each of the mutants and the concentration needed to support 50% of cell growth was determined.

[2] = BIAcore binding of proteins to heparin immobilised on a biosensor chip; details: IL-4 WT and mutants binding to heparin
Text: This technology uses the optical phenomenon of surface plasmon resonance to monitor physical interactions between molecules. Passing the protein solution over a sensor surface to which the ligand is coupled monitors the real-time binding of proteins to an immobilized ligand. Detection is achieved by measuring refractive index changes very close to the sensor surface. When the refractive index is altered, the angle at which plasmon resonance occurs changes and this change directly correlates with the amount of protein interacting with the surface. A BIAcore 2000 is conveniently used. It is very sensitive and its microfluidics ensures that only small amounts of material are required.
The HLGAGs are immobilized on the biosensor chip. Intact HLGAGs are biotinylated via amino groups, or reducing termini modified with ammonia by reductive amination, using sulfo-NHS-biotin. Biotinylated HLGAGs are immobilized on streptavidin-coupled sensor chips. Solutions containing proteins of interest are injected over the sensor chip surface, and the binding is measured in real time (Fernig, In: Proteoglycan protocols, Ed. R.V. Iozzo, Humana Press, Totowa, N.J., USA, 2001). […] In all cases binding is specific, as there is little or no interaction with sensor chips lacking heparin with any of the targeted proteins, and binding is inhibited by exogenous heparin. Initial analyzes indicate that the binding of rhIL-5 to heparin has affinity constants of the order from 50-5×10^−9. Because unsubstituted amines are variably present in heparan sulfates from different tissues, an alternative method of biotin labeling is recommended for the heparan sulfate chip. In this case, heparan sulfate is labeled via oxidized cis-diol residues using biotinyl-LC-hydrazine. […]
Binding experiments with these proteins has indicated to which PECAM-1 domains heparin binds. Two binding assays were used: the assay where PECAM-1 is reacted with a BIAcore biosensor chip to which heparin has been immobilised and the second assay is the binding of PECAM-1 to heparan sulfate on the cell surface.
Site directed mutagenesis was performed on IL-4. Basic residues within the proposed heparin binding site were changed to alanine and the proteins expressed using the baculovirus expression system. The one exception was R88 which was changed to valine. Insect cell expressed proteins were purified on an anti-IL-4 affinity column and checked for purity by SDS-PAGE and silver staining. Mutant IL-4 proteins were examined for their ability to bind heparin immobilised on a biosensor chip and binding assessed using a BIAcore 2000.

B1: K21A: IL-4 mutant, baculovirus expressed (protein)
chain: HKCDITLQEIIKTLNSLTEQATLCTELTVTDIFAASKNTTEKETFCRAATVLRQFYSHHEKDTRCLGATAQQFHRHKQLIRFLKRLDRNLWGLAGLNSCPVKEANQSTLENFLERLKTIMREKYSKCSS
With B1 the “Conc needed for 50% growth, average” value [1] was 1.36 ng/mL, the ka ([2]; in M-1s-1 (unit assumed)) was 4.86E+04 and the kd ([2]; in s-1 (unit assumed)) was 2.53E−03. For the same molecule, the Kd ([2]; read-out: KD) was 52.1 nM.
